Results as given in patent publication US20250304643A1 (BAINAN BIOTECH, published 2025).
*1 amine or outer side, *2 acyl side, *3 side chain or, on linkers, in order; H or OH if unused. Where no end group is shown, it is not given here. Side-chain parts run from the residue outwards. [ ]: non-standard residue; d: D form. The star is where a group is joined. γGlu = O=C(O)[C@H](CCC(=O)[*:2])N[*:1]; Palmitoyl = CCCCCCCCCCCCCCCC(=O)*; Decanoyl = CCCCCCCCCC(=O)*; Aib = CC(C)(N)C(=O)O

Assays:
Assay in all cases: cell-based or functional assay
[1] = molecular target: human GLP-1R (GLP-1 receptor) (human, UniProt P43220 24-463)
[2] = molecular target: T1, human GIPR (glucose-dependent insulinotropic polypeptide receptor) (human, UniProt P48546 22-466)
T1 sequence (looked up): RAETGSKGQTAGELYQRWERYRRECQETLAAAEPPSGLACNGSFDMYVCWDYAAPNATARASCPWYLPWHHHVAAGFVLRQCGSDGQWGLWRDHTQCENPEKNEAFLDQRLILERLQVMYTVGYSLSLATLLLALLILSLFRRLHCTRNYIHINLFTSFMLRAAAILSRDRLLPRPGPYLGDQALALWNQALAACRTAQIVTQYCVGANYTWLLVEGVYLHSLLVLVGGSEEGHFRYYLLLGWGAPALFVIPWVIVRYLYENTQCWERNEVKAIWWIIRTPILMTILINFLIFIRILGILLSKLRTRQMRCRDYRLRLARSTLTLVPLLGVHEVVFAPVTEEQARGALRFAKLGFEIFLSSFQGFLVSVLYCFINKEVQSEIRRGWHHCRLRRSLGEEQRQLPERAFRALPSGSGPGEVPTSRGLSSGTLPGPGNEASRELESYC

[3] = molecular target: T2, human GLP-2R (glucagon-like peptide-2 receptor) (human, UniProt O95838 1-553)
T2 sequence (looked up): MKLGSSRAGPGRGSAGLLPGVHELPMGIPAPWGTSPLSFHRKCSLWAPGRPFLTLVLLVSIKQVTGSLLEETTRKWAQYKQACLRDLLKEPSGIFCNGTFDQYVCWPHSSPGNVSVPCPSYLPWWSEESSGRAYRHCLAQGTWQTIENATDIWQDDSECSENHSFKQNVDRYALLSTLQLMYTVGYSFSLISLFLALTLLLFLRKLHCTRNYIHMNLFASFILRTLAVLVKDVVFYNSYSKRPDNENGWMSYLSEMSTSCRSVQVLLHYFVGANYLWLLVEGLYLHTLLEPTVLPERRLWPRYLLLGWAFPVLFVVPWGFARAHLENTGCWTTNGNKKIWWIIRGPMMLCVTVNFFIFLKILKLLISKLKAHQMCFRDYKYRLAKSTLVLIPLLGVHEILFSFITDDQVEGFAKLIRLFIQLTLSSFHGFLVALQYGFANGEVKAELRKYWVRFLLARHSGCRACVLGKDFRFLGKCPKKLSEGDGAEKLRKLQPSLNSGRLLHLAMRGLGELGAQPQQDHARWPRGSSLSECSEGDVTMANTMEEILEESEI

B1: Compound no. 8 (peptide)
peptide: Palmitoyl-H[Aib]DGTFISDYSTILDNLAARDFIEWLIQTKIT-OH
SMILES: CCCCCCCCCCCCCCCC(=O)N[C@@H](Cc1c[nH]cn1)C(=O)NC(C)(C)C(=O)N[C@@H](CC(=O)O)C(=O)NCC(=O)N[C@H](C(=O)N[C@@H](Cc1ccccc1)C(=O)N[C@H](C(=O)N[C@@H](CO)C(=O)N[C@@H](CC(=O)O)C(=O)N[C@@H](Cc1ccc(O)cc1)C(=O)N[C@@H](CO)C(=O)N[C@H](C(=O)N[C@H](C(=O)N[C@@H](CC(C)C)C(=O)N[C@@H](CC(=O)O)C(=O)N[C@@H](CC(N)=O)C(=O)N[C@@H](CC(C)C)C(=O)N[C@@H](C)C(=O)N[C@@H](C)C(=O)N[C@@H](CCCNC(=N)N)C(=O)N[C@@H](CC(=O)O)C(=O)N[C@@H](Cc1ccccc1)C(=O)N[C@H](C(=O)N[C@@H](CCC(=O)O)C(=O)N[C@@H](Cc1c[nH]c2ccccc12)C(=O)N[C@@H](CC(C)C)C(=O)N[C@H](C(=O)N[C@@H](CCC(N)=O)C(=O)N[C@H](C(=O)N[C@@H](CCCCN)C(=O)N[C@H](C(=O)N[C@H](C(=O)O)[C@@H](C)O)[C@@H](C)CC)[C@@H](C)O)[C@@H](C)CC)[C@@H](C)CC)[C@@H](C)CC)[C@@H](C)O)[C@@H](C)CC)[C@@H](C)O
[1]
  cAMP assay: EC50 (nM) GLP-1R: 10 nM
  cAMP assay: Efficacy GLP-1R: 19%
  cAMP assay: logEC50 GLP-1R: 8

B2: Compound no. 57 (peptide)
peptide: HADGTFISDYSTILDKLAARDFINWLIQTK(C16 fatty acid)ITK
[2]
  cAMP assay: EC50 (nM) GIPR: 12.6 nM
  cAMP assay: Efficacy GIPR: 97%
[1]
  cAMP assay: EC50 (nM) GLP-1R: 100 nM
  cAMP assay: Efficacy GLP-1R: 73%
  cAMP assay: logEC50 GLP-1R: 7

B3: Compound no. 54 (peptide)
peptide: H[Aib]DGTFISDYK([γGlu-Decanoyl])T[Aib]LDNLAARDFINWLIQTKITGNDWKHNITQ-OH
[2]
  cAMP assay: EC50 (nM) GIPR: 1.17 nM
  cAMP assay: Efficacy GIPR: 86%
[1]
  cAMP assay: EC50 (nM) GLP-1R: 39.8 nM
  cAMP assay: Efficacy GLP-1R: 8%
  cAMP assay: logEC50 GLP-1R: 7.4

B4: Compound no. 48 (peptide)
peptide: Palmitoyl-HADGTFISDYSTILDELAARDFINWLIQTKITKNDWKHNITQ
[2]
  cAMP assay: EC50 (nM) GIPR: 2.82 nM
  cAMP assay: Efficacy GIPR: 112%
[3]
  cAMP assay: EC50 (nM) GLP-2R: 25.1 nM
  cAMP assay: Efficacy GLP-2R: 69%
  cAMP assay: logEC50 GLP-2R: 7.6

B5: Compound no. 11 (peptide)
peptide: HXDGTFISDYKTILDNLAARDFINWLIQTKITK
modifications: Aib at 2; K(γGlu-C16) at 11; C-terminus -OH
[1]
  cAMP assay: Efficacy GLP-1R: 11%

B6: Compound no. 31 (peptide)
peptide: H[Aib]DGTFISDYK([γGlu-Decanoyl])TILDKLAARDFIEWLIATKITK-OH
modifications: N-terminus assumed
SMILES: CCCCCCCCCC(=O)N[C@@H](CCC(=O)NCCCC[C@H](NC(=O)[C@H](Cc1ccc(O)cc1)NC(=O)[C@H](CC(=O)O)NC(=O)[C@H](CO)NC(=O)[C@@H](NC(=O)[C@H](Cc1ccccc1)NC(=O)[C@@H](NC(=O)CNC(=O)[C@H](CC(=O)O)NC(=O)C(C)(C)NC(=O)[C@@H](N)Cc1c[nH]cn1)[C@@H](C)O)[C@@H](C)CC)C(=O)N[C@H](C(=O)N[C@H](C(=O)N[C@@H](CC(C)C)C(=O)N[C@@H](CC(=O)O)C(=O)N[C@@H](CCCCN)C(=O)N[C@@H](CC(C)C)C(=O)N[C@@H](C)C(=O)N[C@@H](C)C(=O)N[C@@H](CCCNC(=N)N)C(=O)N[C@@H](CC(=O)O)C(=O)N[C@@H](Cc1ccccc1)C(=O)N[C@H](C(=O)N[C@@H](CCC(=O)O)C(=O)N[C@@H](Cc1c[nH]c2ccccc12)C(=O)N[C@@H](CC(C)C)C(=O)N[C@H](C(=O)N[C@@H](C)C(=O)N[C@H](C(=O)N[C@@H](CCCCN)C(=O)N[C@H](C(=O)N[C@H](C(=O)N[C@@H](CCCCN)C(=O)O)[C@@H](C)O)[C@@H](C)CC)[C@@H](C)O)[C@@H](C)CC)[C@@H](C)CC)[C@@H](C)CC)[C@@H](C)O)C(=O)O
[1]
  cAMP assay: EC50 (nM) GLP-1R: 39.8 nM
  cAMP assay: Efficacy GLP-1R: 6%
  cAMP assay: logEC50 GLP-1R: 7.4

B7: Compound no. 44 (peptide)
peptide: Decanoyl-H[Aib]DGTFISDYST[Aib]LDNLAARDFINWLIQTKITK-OH
SMILES: CCCCCCCCCC(=O)N[C@@H](Cc1c[nH]cn1)C(=O)NC(C)(C)C(=O)N[C@@H](CC(=O)O)C(=O)NCC(=O)N[C@H](C(=O)N[C@@H](Cc1ccccc1)C(=O)N[C@H](C(=O)N[C@@H](CO)C(=O)N[C@@H](CC(=O)O)C(=O)N[C@@H](Cc1ccc(O)cc1)C(=O)N[C@@H](CO)C(=O)N[C@H](C(=O)NC(C)(C)C(=O)N[C@@H](CC(C)C)C(=O)N[C@@H](CC(=O)O)C(=O)N[C@@H](CC(N)=O)C(=O)N[C@@H](CC(C)C)C(=O)N[C@@H](C)C(=O)N[C@@H](C)C(=O)N[C@@H](CCCNC(=N)N)C(=O)N[C@@H](CC(=O)O)C(=O)N[C@@H](Cc1ccccc1)C(=O)N[C@H](C(=O)N[C@@H](CC(N)=O)C(=O)N[C@@H](Cc1c[nH]c2ccccc12)C(=O)N[C@@H](CC(C)C)C(=O)N[C@H](C(=O)N[C@@H](CCC(N)=O)C(=O)N[C@H](C(=O)N[C@@H](CCCCN)C(=O)N[C@H](C(=O)N[C@H](C(=O)N[C@@H](CCCCN)C(=O)O)[C@@H](C)O)[C@@H](C)CC)[C@@H](C)O)[C@@H](C)CC)[C@@H](C)CC)[C@@H](C)O)[C@@H](C)CC)[C@@H](C)O
[1]
  cAMP assay: Efficacy GLP-1R: 19%

B8: Compound no. 7 (peptide)
peptide: Palmitoyl-H[Aib]DGTFISDYSTILDNLAARDFIEWLIQTKITK-OH
SMILES: CCCCCCCCCCCCCCCC(=O)N[C@@H](Cc1c[nH]cn1)C(=O)NC(C)(C)C(=O)N[C@@H](CC(=O)O)C(=O)NCC(=O)N[C@H](C(=O)N[C@@H](Cc1ccccc1)C(=O)N[C@H](C(=O)N[C@@H](CO)C(=O)N[C@@H](CC(=O)O)C(=O)N[C@@H](Cc1ccc(O)cc1)C(=O)N[C@@H](CO)C(=O)N[C@H](C(=O)N[C@H](C(=O)N[C@@H](CC(C)C)C(=O)N[C@@H](CC(=O)O)C(=O)N[C@@H](CC(N)=O)C(=O)N[C@@H](CC(C)C)C(=O)N[C@@H](C)C(=O)N[C@@H](C)C(=O)N[C@@H](CCCNC(=N)N)C(=O)N[C@@H](CC(=O)O)C(=O)N[C@@H](Cc1ccccc1)C(=O)N[C@H](C(=O)N[C@@H](CCC(=O)O)C(=O)N[C@@H](Cc1c[nH]c2ccccc12)C(=O)N[C@@H](CC(C)C)C(=O)N[C@H](C(=O)N[C@@H](CCC(N)=O)C(=O)N[C@H](C(=O)N[C@@H](CCCCN)C(=O)N[C@H](C(=O)N[C@H](C(=O)N[C@@H](CCCCN)C(=O)O)[C@@H](C)O)[C@@H](C)CC)[C@@H](C)O)[C@@H](C)CC)[C@@H](C)CC)[C@@H](C)CC)[C@@H](C)O)[C@@H](C)CC)[C@@H](C)O
[1]
  cAMP assay: EC50 (nM) GLP-1R: 39.8 nM
  cAMP assay: Efficacy GLP-1R: 13%
  cAMP assay: logEC50 GLP-1R: 7.4

B9: Compound no. 10 (peptide)
peptide: H[Aib]DGTFK([γGlu-Palmitoyl])SDYSTILDNLAARDFINWLIQTKITK-OH
modifications: N-terminus assumed
SMILES: CCCCCCCCCCCCCCCC(=O)N[C@@H](CCC(=O)NCCCC[C@H](NC(=O)[C@H](Cc1ccccc1)NC(=O)[C@@H](NC(=O)CNC(=O)[C@H](CC(=O)O)NC(=O)C(C)(C)NC(=O)[C@@H](N)Cc1c[nH]cn1)[C@@H](C)O)C(=O)N[C@@H](CO)C(=O)N[C@@H](CC(=O)O)C(=O)N[C@@H](Cc1ccc(O)cc1)C(=O)N[C@@H](CO)C(=O)N[C@H](C(=O)N[C@H](C(=O)N[C@@H](CC(C)C)C(=O)N[C@@H](CC(=O)O)C(=O)N[C@@H](CC(N)=O)C(=O)N[C@@H](CC(C)C)C(=O)N[C@@H](C)C(=O)N[C@@H](C)C(=O)N[C@@H](CCCNC(=N)N)C(=O)N[C@@H](CC(=O)O)C(=O)N[C@@H](Cc1ccccc1)C(=O)N[C@H](C(=O)N[C@@H](CC(N)=O)C(=O)N[C@@H](Cc1c[nH]c2ccccc12)C(=O)N[C@@H](CC(C)C)C(=O)N[C@H](C(=O)N[C@@H](CCC(N)=O)C(=O)N[C@H](C(=O)N[C@@H](CCCCN)C(=O)N[C@H](C(=O)N[C@H](C(=O)N[C@@H](CCCCN)C(=O)O)[C@@H](C)O)[C@@H](C)CC)[C@@H](C)O)[C@@H](C)CC)[C@@H](C)CC)[C@@H](C)CC)[C@@H](C)O)C(=O)O
[1]
  cAMP assay: EC50 (nM) GLP-1R: 100 nM
  cAMP assay: Efficacy GLP-1R: 10%
  cAMP assay: logEC50 GLP-1R: 7

B10: Compound no. 49 (peptide)
peptide: Palmitoyl-HADGTFISDYSTILDNLAARDFINWLIQTKITKAEWKHAITQ
[2]
  cAMP assay: EC50 (nM) GIPR: 2.82 nM
  cAMP assay: Efficacy GIPR: 105%
[3]
  cAMP assay: EC50 (nM) GLP-2R: 35.5 nM
  cAMP assay: Efficacy GLP-2R: 92%
  cAMP assay: logEC50 GLP-2R: 7.5

B11: Compound no. 58 (peptide)
peptide: HADGTFISDYSTILDKLAARDFINWLIQTKITK(C16 fatty acid)
[2]
  cAMP assay: EC50 (nM) GIPR: 1.41 nM
  cAMP assay: Efficacy GIPR: 74%
